Measured values reported in PMC3268813 (Scientific Reports, 2012).
Numbering of substitutions follows the chain as printed. Names and notes keep the numbering of the source.

B1: CRN2 wild-type C-terminal polypeptide (aa300-474), His6-tagged (domain or fragment)
chain: PYVHYLNTFSSKEPQRGMGYMPKRGLDVNKCEIARFFKLHERKCEPIIMTVPRKSDLFQDDLYPDTAGPEAALEAEEWFEGKNADPILISLKHGYIPGKNRDLKVVKKNILDSKPTANKKCDLISIPKKTTDTASVQNEAKLDEILKEIKSIKDTICNQDERISKLEQQMAKIAA
B2: CRN2 S463D phosphomimetic C-terminal polypeptide (aa300-474), His6-tagged (domain or fragment)
chain: B1 chain with S164D
B3: CRN2 S463A phospho-resistant C-terminal polypeptide (aa300-474), His6-tagged (domain or fragment)
chain: B1 chain with S164A

Assays:
SEC = molecular target: the molecule itself; assay: SEC
GST-tagged chicken CK2α = molecular target: T1, GST-tagged chicken CK2α (chicken, UniProt P21868 1-391); assay: pull-down
T1 sequence: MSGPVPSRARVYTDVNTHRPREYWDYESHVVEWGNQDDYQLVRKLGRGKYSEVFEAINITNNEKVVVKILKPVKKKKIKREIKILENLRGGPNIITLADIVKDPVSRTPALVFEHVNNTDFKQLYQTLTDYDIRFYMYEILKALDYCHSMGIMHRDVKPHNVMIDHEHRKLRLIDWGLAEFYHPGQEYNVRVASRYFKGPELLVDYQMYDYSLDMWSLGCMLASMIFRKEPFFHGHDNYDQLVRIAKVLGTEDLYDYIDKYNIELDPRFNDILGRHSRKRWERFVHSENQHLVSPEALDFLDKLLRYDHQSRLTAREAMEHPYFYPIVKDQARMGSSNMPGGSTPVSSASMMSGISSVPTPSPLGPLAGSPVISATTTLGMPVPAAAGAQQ

[1] = molecular target: T2, GST-tagged chicken CK2α kinase dead (K68A mutant) (chicken, UniProt P21868 1-391, K68A); assay: pull-down
T2 sequence: T1 sequence with K68A

Row | Binder | stoichiometry N (SEC) | binding result (GST-tagged chicken CK2α) | binding result [1]
1 | B1 | 3 | binds | binds
2 | B2 | 3 | binds | binds
3 | B3 | 3 | – | –
